# Reference: PMC2936520
# Molecular target: OsAP2-39 (OsNUE39) (Oryza sativa) (UniProt Q7XPL6)
# Assay: EMSA
# Settings: Invitrogen EMSA kit E33075 per manufacturer; 30 ng protein with 0-400 ng DNA; 4-20% TBE native gel, 200 V, 45 min; buffer, salt, pH and temperature not stated
# OsAP2-39 (OsNUE39) (Oryza sativa), sequence (Q7XPL6 entry or part of it): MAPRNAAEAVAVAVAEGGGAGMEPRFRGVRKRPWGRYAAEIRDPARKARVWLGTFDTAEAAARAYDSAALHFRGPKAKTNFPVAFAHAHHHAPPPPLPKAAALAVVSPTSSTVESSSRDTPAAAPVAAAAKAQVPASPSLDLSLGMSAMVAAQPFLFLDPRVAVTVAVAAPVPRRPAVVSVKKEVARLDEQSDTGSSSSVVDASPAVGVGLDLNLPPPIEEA
sequence,measurement,value
AGTGTTCTGTTCCCCCGGGGAGATAAACCCCCCCTCCTTGGCAACGATACTACCAAGGTTTCTCATCACCAAGATTGTTTGCATGGGACACAGTAACAAACACCGCAGCCGCCGGCGCCGCAGACATT (double strand) [OsNCED-1 promoter GCC-box fragment],binding,binds
